These results are taken from patent publication US8703459B2, “Catalytic domains of beta(1,4)-galactosyltransferase I having altered metal ion specificity” (The United States of America, as represented by the …, priority 2003, dated 2014).

Like-named read-outs stand apart in the source and are kept apart here. Marks after values point to notes of the source that are not given here.

As a reminder, the Km is the concentration of substrate that gives half-maximal velocity.

The target of one series is T1, β4Gal-T1 (Bos taurus, UniProt P08037).
T1 sequence (P08037 1-402): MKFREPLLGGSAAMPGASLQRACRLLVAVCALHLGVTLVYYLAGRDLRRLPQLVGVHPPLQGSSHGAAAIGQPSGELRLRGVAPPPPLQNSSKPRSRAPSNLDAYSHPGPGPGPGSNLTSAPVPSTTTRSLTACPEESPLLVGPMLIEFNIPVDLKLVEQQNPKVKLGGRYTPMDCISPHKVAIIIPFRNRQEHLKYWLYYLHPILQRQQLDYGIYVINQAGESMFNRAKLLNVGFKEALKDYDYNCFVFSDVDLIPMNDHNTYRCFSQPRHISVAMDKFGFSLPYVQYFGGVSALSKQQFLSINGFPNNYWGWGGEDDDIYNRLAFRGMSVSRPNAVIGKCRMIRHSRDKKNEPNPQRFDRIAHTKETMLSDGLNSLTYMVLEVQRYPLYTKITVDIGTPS
The following applies: read-out: Km value of the acceptor; cited from earlier work.

For the next series, the target named is T2, M344H-Gal-T1 (Bos taurus, UniProt P08037, C342T/M344H).
T2 construct: codes for residues 130 to 402 of bovine Gal-T1; made in house; host or cells: E. coli BL21(DE3) pLysS (pET23a derivative pEGT-d129)
T2 sequence (P08037 130-402 C342T/M344H): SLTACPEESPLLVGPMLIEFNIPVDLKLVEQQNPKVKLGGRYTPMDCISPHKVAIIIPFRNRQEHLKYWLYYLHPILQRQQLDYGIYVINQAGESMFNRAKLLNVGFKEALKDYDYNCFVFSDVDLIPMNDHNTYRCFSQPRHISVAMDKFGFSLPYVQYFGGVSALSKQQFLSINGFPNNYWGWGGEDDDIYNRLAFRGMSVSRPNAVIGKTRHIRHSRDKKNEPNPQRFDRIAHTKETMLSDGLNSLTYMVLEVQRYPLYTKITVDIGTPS
The series is described as follows: Acceptor substrate inhibition of M344H-Gal-T1 catalytic activity. The class given is biochemical, bovine. The following applies: in the presence of Mn^2+ (5 mM in FIG. 7c). The protocol:
(§1) FIG. 7 depicts the effect of GlcNAc concentration on Gal-T activity of the M344H-Gal-T1 mutant (a) and wild-type enzyme, C342T-Gal-T1 (b), at different fixed concentrations of Mn^2+: (a) (●) 6 μM, (O) 20 μM, (▾) 0.5 mM, (open triangle) 1.5 mM, and (▪) 5 mM and (b) (●) 6 μM, (open triangle) 80 μM, (▪) 0.5 mM, (▴) 1.5 mM, and (A) 5 mM. The activity of the mutant (a) is inhibited above 2-5 mM GlcNAc at any concentrations of Mn^2+, whereas the activity of the wild type (b) is inhibited at 25-30 mM GlcNAc and above 0.5 mM Mn^2+. (c) Effect of either GlcNAc, chitobiose, or β-benzyl-GlcNAc concentration on Gal-T activity of the mutant M344H-Gal-T1 in the presence of 5 mM Mn^2+. Arrows indicate the inhibition concentration for the respective curves. It is known that the disaccharide chitobiose binds strongly to the Gal-T1 compared to the monosaccharide GlcNAc. The higher the affinity of the acceptor substrate, the lower the required inhibition concentrations.
(§2) The inhibition of the M344H-Gal-T1 mutant with higher concentrations of the acceptor is independent of the concentration of Mn^2+ used in the assay (FIGS. 7A-C), while in the wild type, low concentrations of metal have no effect on acceptor inhibition (FIGS. 7A-C). […]

The nature of series [1]: Two-substrate kinetic analysis of galactose transfer. Type of series: biochemical, bovine. The following applies: with Mn^2+. An excerpt:
The true Km of the donor (KA) and of the acceptor (KB), the dissociation constant of the donor, Kia, and kcat, were obtained using two-substrate analyses and the primary plots of at least five concentrations of donor (UDP-Gal) and five concentrations of acceptor, and the corresponding secondary plots of the intercepts and slopes. Initial rate conditions were linear with respect to time. A suitable range of donor and acceptor concentrations was chosen, which allowed accurate Michaelis-Menten constants to be derived. The data were also analyzed for a general two-substrate system using the following equations (Herbert, Initial Rate Enzymatic Kinetics, Springer-Verlag, New York (1975)) with the software EnzFitter, a Biosoft non-linear curve fitting program for Windows:
[formula] Here ν is the initial velocity and the rate equation for a sequential symmetrical, initial velocity pattern associated with equation 1, an ordered or random equilibrium mechanism in which substrate A dissociates well from the ECS complex with a dissociation constant of Kia. Equation 2 is for an asymmetric initial velocity pattern for a double-displacement or “ping-pong” mechanism. The kinetic parameters KA, KB, Kia, and Vmax were obtained from the fitted curves using the above rate equations. The graphical method and EnzFitter program gave very similar kinetic parameters.
This is quite similar to that of the wild-type enzyme (FIG. 2B) (Takase and Ebner, Curr. Top. Cell Regul., 24:51 (1984); Boeggeman and Qasba, Glycobiology, 12:395 (2002)). […] Although the catalytic efficiency with respect to donor and acceptor, compared to the wild-type enzyme with Mn^2+, has decreased by an order of about 13 and 6, respectively, the turnover number of the mutant, kcat, is reduced by only 60%. The lesser effect on kcat could be the result of Mg^2+ participating more efficiently in the formation of the transition state complex during the transfer reaction by the mutant or minor differences in the coordination geometry of the Mg^2+ in the mutant compared to that of Mn^2+ ion in the wild-type enzyme. The crystal structure of the M344H-Gal-T1 in complex with UDP-Gal in the presence of either Mn^2+ or Mg^2+ was then determined and compared to the structure with the wild-type UDP-Gal.metal complex. Crystal structure analysis of the M344E-Gal-T1 mutant in the presence of UDP-Gal and Mn^2+ was conducted to further understand the effect of the M344E mutation on the metal-ion binding site.

The nature of series [2]: Effect of the acceptor concentration on Gal-T activity of the enzyme. The following applies: in the presence of Mn^2+. Type of series: biochemical, bovine. The protocol: as §1, §2
A short description of series [3]: β4Gal-T enzyme assay, specific activity in the presence of various metal ions. The class given is biochemical, bovine. The protocol:
Protein concentrations were measured using the Bio-Rad Protein Assay kit, based on the method of Bradford and further verified on SDS-PAGE gels using standard protein concentration markers. An in vitro assay procedure for Gal-T1 has been reported previously (Ramakrishnan et al., J. Mol. Biol., 310:205 (2001)). The activities were measured using UDP-Gal as sugar nucleotide donor, and GlcNAc as the acceptor sugar. For the specific activity measurements, a 100 μL incubation mixture containing 25 mM GlcNAc, 5 mM MnCl2 or MgCl2, 20 mM Tris-HCl pH 8.0, 500 μM UDP-Gal, 500 ng M344H-Gal-T1 or 30 ng of C342T-Gal-T1 and 0.5 μCi ^3H-UDP-Gal was used for each Gal-T reaction. The incubation was carried out at 30° C. for 15 minutes. The reaction was terminated by adding of 200 μl cold water, and the mixture was passed through a 0.5 mL bed volume column of AG 1-X8 […] resin (Bio-Rad) to remove any unreacted ^3H-UDP-Gal. The column was washed successively with 300, 400 and 500 μl of cold water, and the column flow-through was diluted with Biosafe scintillation fluid; radioactivity was measured with a Beckman counter. A reaction without the acceptor sugar was used as a control. Only 0.1 mM concentration of ZnCl2 or CoCl2 was used whenever Zn^2+ or Co^2+ was used during the enzyme assay.

A short description of series [4]: Metal ion activation curve, metal binding constants for Mn^2+. The class given is biochemical, bovine. The following applies: with Mn^2+. The text has this: The activation curve of M344E-Gal-T1, using Mn^2+, is strikingly different from that of the wild-type enzyme (FIGS. 1A and 1B). In contrast to the wild type enzyme, the velocity curve obtained with the Mn^2+ concentration for the M344E-Gal-T1 mutant is not sigmoidal. On the other hand, the same curve for the M344H-Gal-T1 mutant in the presence of the Mg^2+ is sigmoidal (FIG. 1C). The observation that activation of the wild type enzyme by metal ions is sigmoidal has been interpreted as involving two metal binding sites in the enzyme: one with high affinity (Kd1), which is associated with low velocity, and a second site with low affinity (Kd2), which is associated with high velocity (Powell and Brew, J. Biol. Chem., 251:3645 (1976); Boeggeman and Qasba, Glycobiology, 12:395 (2002)). […] The values of the dissociation constant (Kd) for Mn^2+ of the mutant are quite different from that of the wild type (Table IV).
The enzyme activation data at various concentrations of Mg^2+ were fitted to an equation describing metal binding to a high affinity site (K1) to generate an enzyme form with a low kcat (V1) and to a second, lower affinity site (K2) to generate a form with a higher kcat (V2) (Boeggeman and Qasba, Glycobiology, 12:395 (2002)): […]

The mark [5] stands for this setting: 5 mM metal ion, 500 μM UDP-Gal, 25 mM GlcNAc.

Regarding `CC(=O)N[C@H]1C(O)O[C@H](CO)[C@@H](O)[C@@H]1O` (stereo partly drawn) [GlcNAc, N-acetylglucosamine], the Km at β4Gal-T1 is 5 mM.

With `CC(=O)N[C@H]1[C@H](O[C@H]2[C@H](O)[C@@H](NC(C)=O)C(O)O[C@@H]2CO)O[C@H](CO)[C@@H](O)[C@@H]1O` (stereo partly drawn) [chitobiose, βGlcNAc1-4GlcNAc], the Michaelis-Menten constant (Km) on β4Gal-T1 is 1 mM. In addition, the “inhibition of the catalytic activity of the M344H-Gal-T1 mutant by the acceptor” value at M344H-Gal-T1 was “at very low concentrations much more strongly than GlcNAc does”.

On to `CC(=O)N[C@H]1[C@H](OCc2ccccc2)O[C@H](CO)[C@@H](O)[C@@H]1O` [β-benzyl-GlcNAc], for which, at M344H-Gal-T1, the “inhibition of the catalytic activity of the M344H-Gal-T1 mutant by the acceptor” value is listed as “at very low concentrations much more strongly than GlcNAc does”.

B1: wild-type β4Gal-T1: residues 130 to 402 of bovine Gal-T1 with Cysteine to Threonine exchange at 342 (C342T), used as wild-type enzyme (protein, UniProt P08037 130-402, looked up, variant C342T)
chain: SLTACPEESPLLVGPMLIEFNIPVDLKLVEQQNPKVKLGGRYTPMDCISPHKVAIIIPFRNRQEHLKYWLYYLHPILQRQQLDYGIYVINQAGESMFNRAKLLNVGFKEALKDYDYNCFVFSDVDLIPMNDHNTYRCFSQPRHISVAMDKFGFSLPYVQYFGGVSALSKQQFLSINGFPNNYWGWGGEDDDIYNRLAFRGMSVSRPNAVIGKTRMIRHSRDKKNEPNPQRFDRIAHTKETMLSDGLNSLTYMVLEVQRYPLYTKITVDIGTPS
modifications: catalytic domain
notes: residues 130 to 402 of bovine Gal-T1 with Cysteine to Threonine exchange at 342 (C342T), used as wild-type enzyme
As to B1, in series [1], the GlcNAc KB (true Km of the acceptor) was found to be 10 mM, the Kcat was determined as 3.6 s⁻¹, the Kcat/KA is 40000 M⁻¹ s⁻¹ and the “Kia (dissociation constant of the donor)” value came out at 0. Also, in series [1], the “UDP-Gal KA (true Km of the donor)” value is on record as 95(6) μM and the “UDP-Gal Vmax” value is listed as 6.4(4) pmol min^−1 ng^−1. Further, the “GlcNAc concentrations at which catalytic activity is inhibited” value in series [2] was in the range of 20 to 25 mM. In addition, in series [2] (listed as C342T-Gal-T1), the “GlcNAc concentrations at which catalytic activity is inhibited” value is 25 to 30 mM. For the same molecule, the “Catalytic Activity in the Presence of Various Metal Ions: Co” value in series [3] (0.1 mM Co^2+, 500 μM UDP-Gal, 25 mM GlcNAc) was 0.41^b picomoles per minute per nanogram. Further, the “Catalytic Activity in the Presence of Various Metal Ions: Zn” value in series [3] (0.1 mM Zn^2+, 500 μM UDP-Gal, 25 mM GlcNAc) is 1.42 picomoles per minute per nanogram. Moreover, in series [3] (setting [5]), the “Catalytic Activity in the Presence of Various Metal Ions: Ca” value is on record as 0 picomoles per minute per nanogram, the “Catalytic Activity in the Presence of Various Metal Ions: Mg” value is recorded as 0 picomoles per minute per nanogram, the “Catalytic Activity in the Presence of Various Metal Ions: Mn” value was 5.35 picomoles per minute per nanogram and the “Catalytic Activity in the Presence of Various Metal Ions: Sr” value is 0 picomoles per minute per nanogram. Also, the “activation of the enzyme by Mg^2+” value in series [3] (Mg^2+) is “does not activate”. Moreover, the Kd in series [4] (read-out: metal ion Kd1) amounted to 30 µM. Besides, the Kd in series [4] (read-out: metal ion Kd2) was 400 µM.
